In paper PMC12723161:

How the values were obtained:
[1] = target: GST-fused ROC15 (GARP), the active domain of Rhythm Of Clock 15; experiment: GST pull-down, SDS-PAGE band intensity ratio; conditions: absence of reducing agents, read off a plot
[2] = target: Chlamydomonas reinhardtii animal-like cryptochrome (CraCRY), wild type (Chlamydomonas reinhardtii); experiment: SEC; concentration series, blue light 4 min; HEPES pH 7.4, 150 mM NaCl; Superdex 200 Increase 10/300, room temperature, in darkness; dimer fraction from peak areas
[3] = target: Chlamydomonas reinhardtii animal-like cryptochrome (CraCRY), wild type (Chlamydomonas reinhardtii); experiment: SEC; dimer peak collected from SEC, kept in the dark, second round of SEC
[4] = target: CraCRY Y373R (Chlamydomonas reinhardtii); experiment: SEC; time-lapse dimerization under blue light (450 nm, 100 W/m^2); 6 mg/mL in HEPES pH 7.4, 150 mM NaCl; Superdex 200 Increase 10/300, room temperature, in darkness; dimer fraction from peak areas
[5] = target: CraCRY Y373E (Chlamydomonas reinhardtii); experiment: as above
[6] = lit (blue light), parent: est. 0.15

response ([1]; dark, parent: est. 0.03)	response [1, 6]	Substance	also measured
0.05	0.58	Chlamydomonas reinhardtii animal-like cryptochrome (CraCRY), wild type Y373W; N395C	
0.045	0.85	Chlamydomonas reinhardtii animal-like cryptochrome (CraCRY), wild type Y373W	
		Chlamydomonas reinhardtii animal-like cryptochrome (CraCRY), wild type (natural protein)	dimer fraction (percent of elution peak area) [2]: 20%; stoichiometry N [3]: 2
		CraCRY Y373R (natural protein)	dimer fraction (percent of elution peak area) [4]: 50%
		CraCRY Y373E (natural protein)	dimer fraction (percent of elution peak area) [5]: 50%
